Laboratory results published in paper PMC2193676.

Biological target: biotinylated K^d-SYIPSAEK(ABA)I (H-2K^d heavy chain, human β2-microglobulin, photoreactive PbCS(ABA) peptide) (not stated | human | Plasmodium berghei)
Assay: SPR

**Q.** How did the Kd turn out when “soluble CD8αβ (extracellular portions of murine CD8α and CD8β fused to leucine zipper units) (complex)” was run?
**A.** 99 µM
